Patent US20150093383A1 (ONO PHARMACEUTICAL, published 2015)
One block for each binder: values may come before it. Square brackets hold non-standard residues; d marks the D form. Ends that are not written are not given here. * marks the point of attachment. Biotin = O=C1N[C@H]2[C@H](CS[C@H]2CCCCC(=O)*)N1; pY = N[C@@H](Cc1ccc(OP(=O)(O)O)cc1)C(=O)O

Key:
SHP-1 [1] = biological target: T1, SHP-1 (mouse (endogenous in mouse B cell …, UniProt P29351 1-595)); test: pull-down of A20IIA1.6 lysate with biotinylated phosphopeptide, Western blotting
T1 construct: Detected by Western blotting with a Santacruz primary antibody; also called phosphatase
Excerpt: (§1) The ITIM domain which is a sequence important for BIR1 in transmitting inhibitory signal and the binding phosphatase were identified. Peptides (Y3: Biotin-HSQELQ³¹³YATPVF (SEQ ID NO:23), Y5: Biotin-DSYKSG³³⁶YVYSEL (SEQ ID NO:24), Y6: Biotin-YKSGYV³³⁸YSELNF (SEQ ID NO:25)) containing intracellular tyrosine of BIR1 (SEQ ID NO:1) and their corresponding phosphorylated peptides (pY3: Biotin-HSQELQ³¹³(pY)ATPVF (SEQ ID NO:26), pY5: Biotin-DSYKSG³³⁶(pY)VYSEL (SEQ ID NO:27), pY6: Biotin-YKSGYV³³⁸(pY)SELNF (SEQ ID NO:28)) were synthesized (consigned to Sigma Genosys). A peptide containing the ITIM sequence of mouse PIR-B and its phosphorylated peptide (Y3: Biotin-ESQDVT⁷⁹⁴YAQLCS (SEQ ID NO:29) and pY3: Biotin-ESQDVT⁷⁹⁴(pY)AQLCS (SEQ ID NO:30)) were synthesized as positive controls. These peptides were connected to Protein A/G PLUS-Agarose (manufactured by Santacruz) via an anti-biotin antibody (manufactured by Sigma) and then allowed to react with a lysate of A20IIA1.6 cell at 4° C. for 2 hours. After immunoprecipitation, western blotting was carried out in the usual way. The membrane was allowed to react with primary antibodies for SHP-1, SHP-2 and SHIP-1 (manufactured by Santacruz), and then allowed to react with an (HRP)-labeled secondary antibody (manufactured by Santacruz), and the bands were detected using an ECL plus Western Blotting Detection System (manufactured by Amersham Biosciences).

SHIP-1 [2] = biological target: T2, SHIP-1 (mouse (endogenous in mouse B cell …, UniProt Q9ES52 1-1191, limits assumed)); test: as above
T2 construct: Detected by Western blotting with a Santacruz primary antibody; also called phosphatase
T2 sequence (looked up): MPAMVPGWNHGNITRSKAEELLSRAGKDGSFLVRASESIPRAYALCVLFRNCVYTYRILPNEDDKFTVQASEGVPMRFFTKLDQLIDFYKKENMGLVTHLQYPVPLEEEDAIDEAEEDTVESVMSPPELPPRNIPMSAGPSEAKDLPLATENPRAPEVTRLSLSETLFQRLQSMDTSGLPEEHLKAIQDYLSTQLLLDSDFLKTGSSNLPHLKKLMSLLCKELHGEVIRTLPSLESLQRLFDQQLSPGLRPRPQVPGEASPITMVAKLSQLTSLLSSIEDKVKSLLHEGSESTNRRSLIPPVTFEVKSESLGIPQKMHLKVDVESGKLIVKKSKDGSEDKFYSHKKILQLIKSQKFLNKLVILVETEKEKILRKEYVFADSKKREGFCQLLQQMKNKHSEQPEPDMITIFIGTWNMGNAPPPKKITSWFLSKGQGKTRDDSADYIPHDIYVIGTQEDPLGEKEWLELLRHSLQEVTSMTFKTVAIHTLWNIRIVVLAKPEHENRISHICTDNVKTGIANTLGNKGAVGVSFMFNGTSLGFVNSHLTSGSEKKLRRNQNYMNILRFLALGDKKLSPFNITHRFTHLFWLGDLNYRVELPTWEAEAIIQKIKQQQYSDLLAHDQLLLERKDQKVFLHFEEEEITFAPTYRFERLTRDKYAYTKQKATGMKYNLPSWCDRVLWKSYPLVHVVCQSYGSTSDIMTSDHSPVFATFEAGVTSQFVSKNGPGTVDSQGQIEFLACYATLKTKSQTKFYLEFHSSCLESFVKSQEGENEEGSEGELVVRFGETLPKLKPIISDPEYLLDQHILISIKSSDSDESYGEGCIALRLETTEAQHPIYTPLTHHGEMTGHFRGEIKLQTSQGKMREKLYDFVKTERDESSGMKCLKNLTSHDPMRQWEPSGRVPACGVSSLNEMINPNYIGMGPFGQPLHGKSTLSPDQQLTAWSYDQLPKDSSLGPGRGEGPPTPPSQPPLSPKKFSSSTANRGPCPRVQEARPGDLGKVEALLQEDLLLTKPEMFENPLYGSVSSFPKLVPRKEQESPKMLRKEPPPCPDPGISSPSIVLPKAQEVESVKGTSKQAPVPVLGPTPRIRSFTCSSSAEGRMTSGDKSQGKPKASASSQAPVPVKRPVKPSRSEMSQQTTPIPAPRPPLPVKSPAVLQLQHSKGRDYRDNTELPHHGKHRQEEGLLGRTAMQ
Excerpt: as §1

SHP-2 [3] = biological target: T3, SHP-2 (mouse (endogenous in mouse B cell …, UniProt P35235 2-593)); test: as above
T3 construct: Detected by Western blotting with a Santacruz primary antibody; also called phosphatase
T3 sequence (looked up): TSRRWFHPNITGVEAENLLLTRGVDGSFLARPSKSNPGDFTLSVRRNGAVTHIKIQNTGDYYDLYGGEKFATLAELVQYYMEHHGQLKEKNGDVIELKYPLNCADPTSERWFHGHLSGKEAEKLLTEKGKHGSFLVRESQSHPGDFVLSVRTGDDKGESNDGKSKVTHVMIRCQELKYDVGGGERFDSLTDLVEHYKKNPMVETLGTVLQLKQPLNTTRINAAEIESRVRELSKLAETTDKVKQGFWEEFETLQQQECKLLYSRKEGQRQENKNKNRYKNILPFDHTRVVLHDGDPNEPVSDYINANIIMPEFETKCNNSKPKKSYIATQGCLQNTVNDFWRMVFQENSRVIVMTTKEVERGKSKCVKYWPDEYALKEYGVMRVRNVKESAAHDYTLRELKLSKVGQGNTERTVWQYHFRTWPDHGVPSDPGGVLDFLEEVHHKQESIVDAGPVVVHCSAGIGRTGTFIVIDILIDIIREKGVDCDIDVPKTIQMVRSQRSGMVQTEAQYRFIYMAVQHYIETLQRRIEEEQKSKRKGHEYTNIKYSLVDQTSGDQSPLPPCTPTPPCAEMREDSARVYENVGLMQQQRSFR
Excerpt: as §1

SHP-1 [4] = biological target: T1, SHP-1; test: co-immunoprecipitation with 2.4G2 from stimulated A20IIA1.6 cells, Western blotting
Description: (§2) Examination was carried out on whether or not intracellular tyrosine residue is phosphorylated and a phosphatase is recruited when BIR1 is activated. With 30 μg/mL of F(ab′)₂ of rabbit anti-mouse IgG (H+L) antibody or 45 μg/mL of intact antibody thereof (manufactured by Zymed), 3×10⁷ cells of the FcR chimeric protein-stably expressing cell suspended in Ca²⁺-containing HEPES/Hanks' buffer were stimulated at 37° C. for 3 minutes. Thereafter, the cells were lysed with a lysis buffer (1% NP-40, 50 mmol/L Tris-HCl, pH 8.0, 150 mmol/L NaCl, 50 mmol/L NaF, 10% glycerol, 1 mmol/L Na₃VO₄, […], proteinnase inhibitor cocktail tablet (manufactured by Roche Diagnostics)). The cell lysate was allowed to react with Protein A/G PLUS-Agarose (manufactured by Santacruz) to which a rat anti-mouse CD16/CD32 antibody (2.4G2) (manufactured by BD Pharmingen) is bound, at 4° C. for 5 hours or more. The FcR chimeric protein and binding molecules thereof are immuno-precipitated and then Western blotting was carried out in the usual way. The membrane was allowed to react with phosphotyrosine (4G10) (manufactured by Upstate) and primary antibodies for SHP-1, SHP-2 and SHIP-1 (manufactured by Santacruz), followed by the reaction with a horse radish peroxidase (HRP)-labeled secondary antibody (manufactured by Santacruz) to detect the bands by an ECL detection system (manufactured by Amersham Biosciences).

SHIP-1 [5] = biological target: T2, SHIP-1; test: as above
Description: as §2

SHP-2 [6] = biological target: T3, SHP-2; test: as above
Description: as §2

binding result (SHP-1 [1]): no binding | binding result (SHIP-1 [2]): no binding | binding result (SHP-2 [3]): no binding
Binder: Biotin-DSYKSG[pY]VYSEL (Synthesised by Sigma Genosys) [pY5: Biotin-DSYKSG^336(pY)VYSEL]

binding result (SHP-1 [4]): no binding | binding result (SHIP-1 [5]): no binding | binding result (SHP-2 [6]): no binding
B1: FcR-hBIR1 (YWF) (receptor)
chain: THDLPKAVVKLEPPWIQVLKEDTVTLTCEGTHNPGNSSTQWFHNGRSIRSQVQASYTFKATVNDSGEYRCQMEQTRLSDPVDLGVISDWLLLQTPQLVFLEGETITLRCHSWRNKLLNRISFFHNEKSVRYHHYSSNFSIPKANHSHSGDYYCKGSLGRTLHQSKPVTITVQGPKSSRSLPVLTIVAAVTGIAVAAIVIILVSLVYLKKKQVPKFKTRKAMRNNVPRDRGDTAMEVGIFANILEKQAKEESVPEVGSRPCVSTAQDEAKHSQELQFATPVFQEVAPREQEACDSFKSGFVFSELNF
notes: Stably expressed in the mouse B cell strain A20IIA1.6; Immunoprecipitated from the cell lysate with 2.4G2; also called mutant in which intracellular tyrosine residue of BIR1 was replaced by phenylalanine residue
